From patent publication US20260285970 (published 2026)

Columns and labels:
Assay in all cases: ELISA
IL-17 = biological target: IL-17
IL-2 = IL-2 (UniProt P60568)
IL-4 = biological target: T1, IL-4 (UniProt P05112)
T1 chain: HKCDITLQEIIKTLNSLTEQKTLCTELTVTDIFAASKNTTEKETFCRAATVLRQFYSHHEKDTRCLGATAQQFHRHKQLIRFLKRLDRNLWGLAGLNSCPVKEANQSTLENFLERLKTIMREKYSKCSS

BSA = BSA (bovine, UniProt P02769)

Measured: binding result

Sequence of IL-2 (P60568 21-153): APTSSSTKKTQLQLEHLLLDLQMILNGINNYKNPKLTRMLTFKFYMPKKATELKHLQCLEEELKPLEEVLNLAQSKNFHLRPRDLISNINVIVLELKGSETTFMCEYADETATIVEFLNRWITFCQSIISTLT
Sequence of IL-17 (chain, as listed by the source): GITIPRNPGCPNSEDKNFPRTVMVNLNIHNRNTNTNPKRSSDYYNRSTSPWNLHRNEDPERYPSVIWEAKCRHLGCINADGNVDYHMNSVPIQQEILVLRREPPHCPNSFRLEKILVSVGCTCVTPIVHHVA
Sequence of BSA (P02769 25-607): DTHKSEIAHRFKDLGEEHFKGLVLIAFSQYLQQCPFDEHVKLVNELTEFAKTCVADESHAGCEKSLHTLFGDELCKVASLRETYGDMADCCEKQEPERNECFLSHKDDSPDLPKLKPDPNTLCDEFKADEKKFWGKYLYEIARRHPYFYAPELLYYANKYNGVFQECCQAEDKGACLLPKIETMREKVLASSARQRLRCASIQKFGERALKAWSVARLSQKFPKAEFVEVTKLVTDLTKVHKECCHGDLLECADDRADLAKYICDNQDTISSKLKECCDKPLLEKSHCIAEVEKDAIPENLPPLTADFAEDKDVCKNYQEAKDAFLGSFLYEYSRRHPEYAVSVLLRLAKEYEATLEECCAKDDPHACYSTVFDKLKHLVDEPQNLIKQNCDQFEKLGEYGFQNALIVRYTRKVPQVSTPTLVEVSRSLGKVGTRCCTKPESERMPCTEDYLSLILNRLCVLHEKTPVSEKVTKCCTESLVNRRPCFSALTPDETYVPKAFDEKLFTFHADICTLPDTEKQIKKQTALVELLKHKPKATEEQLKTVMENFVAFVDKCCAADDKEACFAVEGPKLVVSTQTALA

B1: BDG33.025 (antibody, V domains shown)
VH: QMQLVESGGGVVQPGRSLRLSCAASGFTFRTYGMHWVRQAPGKGLEWVADIWYDGSNKHYADSVKGRFTITRDNSKNTLNLQMNSLRAEDTAVYYCARAPQWYLVAEPFDLWGQGTMVTVSS
VL: SYVLTQPPSVSVAPGQTARITCGGNLIGSKLVHWYQQKPGQAPVLVVYDDSDRPSLIPERFSGSNSGNTATLTISRVEAGDEADYYCQVWDSSSDGVVFGGGTKLTVL
no binding: IL-17 | IL-2

B2: BDG33.023 (antibody, V domains shown)
VH: QMQLVESGGGVVQPGRSLRLSCAASGFAFRTYGMHWVRQAPGKGLEWVAVIWYDGSNTHYADSVKGRFTITRDNSKNTLNLQMNSLRAEDTAVYYCARAPQWYLSAEAFDLWGQGTMVTVSS
VL: SYVLTQPPSVSVAPGQTARITCGGNLIGSKLVHWYQQKPGQAPVLVVYDDSDRPSRIPERFSGSNSGNTATLTISRVEAGDEADYYCQVWDHSSDHVVFGGGTKLTVL
no binding: IL-17 | IL-4 | IL-2 | BSA
